Reference: patent publication EP4499701A1 (dated 2025)

Molecular target: T1, human FGFR2b expressed on cells (human, UniProt P21802-3 22-822)
T1 construct: whole, on cells; Used for the CHOK1 transfectants (FACS), the Ba/F3 cells with full-length human FGFR2b (ADCC) and the receptor on SNU-16 cells (signalling, proliferation); also called hFGFR2b-expressing CHOK1 cells; CHOK1-FGFR2IIIb transfectants
Experiment: flow cytometry on CHOK1 cells expressing hFGFR2b

T1 sequence (P21802 other isoform, or with tags, fused parts or gaps): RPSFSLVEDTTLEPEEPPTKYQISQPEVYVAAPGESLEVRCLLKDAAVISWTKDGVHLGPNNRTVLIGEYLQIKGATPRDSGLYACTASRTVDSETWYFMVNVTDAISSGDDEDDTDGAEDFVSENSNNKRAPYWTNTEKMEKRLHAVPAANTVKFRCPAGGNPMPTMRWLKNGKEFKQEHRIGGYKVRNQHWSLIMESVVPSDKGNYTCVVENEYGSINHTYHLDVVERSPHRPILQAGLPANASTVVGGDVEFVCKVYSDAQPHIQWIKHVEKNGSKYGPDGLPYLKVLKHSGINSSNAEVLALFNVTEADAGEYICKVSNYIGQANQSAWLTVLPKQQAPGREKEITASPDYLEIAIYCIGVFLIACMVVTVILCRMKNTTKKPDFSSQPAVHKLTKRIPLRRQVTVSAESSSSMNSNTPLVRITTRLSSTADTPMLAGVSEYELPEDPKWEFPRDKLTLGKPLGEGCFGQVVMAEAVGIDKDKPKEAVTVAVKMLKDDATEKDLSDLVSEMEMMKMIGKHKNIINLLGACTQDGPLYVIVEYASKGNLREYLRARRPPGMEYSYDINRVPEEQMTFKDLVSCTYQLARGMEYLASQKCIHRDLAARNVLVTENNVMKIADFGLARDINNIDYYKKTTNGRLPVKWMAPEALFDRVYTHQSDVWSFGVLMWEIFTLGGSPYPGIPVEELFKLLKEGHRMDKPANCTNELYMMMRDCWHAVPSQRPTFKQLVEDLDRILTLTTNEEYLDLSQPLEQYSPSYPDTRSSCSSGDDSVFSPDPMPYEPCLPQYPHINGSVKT

binding result: binds
B1: HC18 (antibody, human IgG1, kappa, V domains shown)
VH: EVQLQQSGTVLARPGASVKMSCKTSGYTFTSYWMHWVKQRPGQGLEWIGSIYPENSDTSYNQKFKGKAKLTAVTSASTAYMDLSSLTNEDSAVYYCSIYHGYDGDYWGQGTTLTVSS
VL: QIVLTQSPAIMSASPGEKVTITCSASSSVSYMYWFQQKPGTSPKLWIYSTSNLASGVPARFSGSGSGTSYSLTISRMEAEDAATYYCQQRSSYPYTFGGGTKLEIKR
notes: also called mAb HC18; the antibody of the present disclosure
